Numbering of substitutions follows the chain as printed.

The target of assay [1] is T1, prostate specific membrane antigen (PSMA) on LNCaP cells (human, UniProt Q04609 1-750).
T1 construct: whole, on cells; also called LNCap membrane preparation
The experiment in a line: ELISA on plates coated with LNCap membrane preparation. In general terms: An ELISA detects its analyte on a solid surface through an enzyme-linked reagent.

For assay [2], the target named is T1, prostate specific membrane antigen …. The experiment in a line: ELISA on plates coated with LNCap membrane preparation; purified antibody; reference J415 chimeric antibody.

T1 sequence (Q04609 whole entry): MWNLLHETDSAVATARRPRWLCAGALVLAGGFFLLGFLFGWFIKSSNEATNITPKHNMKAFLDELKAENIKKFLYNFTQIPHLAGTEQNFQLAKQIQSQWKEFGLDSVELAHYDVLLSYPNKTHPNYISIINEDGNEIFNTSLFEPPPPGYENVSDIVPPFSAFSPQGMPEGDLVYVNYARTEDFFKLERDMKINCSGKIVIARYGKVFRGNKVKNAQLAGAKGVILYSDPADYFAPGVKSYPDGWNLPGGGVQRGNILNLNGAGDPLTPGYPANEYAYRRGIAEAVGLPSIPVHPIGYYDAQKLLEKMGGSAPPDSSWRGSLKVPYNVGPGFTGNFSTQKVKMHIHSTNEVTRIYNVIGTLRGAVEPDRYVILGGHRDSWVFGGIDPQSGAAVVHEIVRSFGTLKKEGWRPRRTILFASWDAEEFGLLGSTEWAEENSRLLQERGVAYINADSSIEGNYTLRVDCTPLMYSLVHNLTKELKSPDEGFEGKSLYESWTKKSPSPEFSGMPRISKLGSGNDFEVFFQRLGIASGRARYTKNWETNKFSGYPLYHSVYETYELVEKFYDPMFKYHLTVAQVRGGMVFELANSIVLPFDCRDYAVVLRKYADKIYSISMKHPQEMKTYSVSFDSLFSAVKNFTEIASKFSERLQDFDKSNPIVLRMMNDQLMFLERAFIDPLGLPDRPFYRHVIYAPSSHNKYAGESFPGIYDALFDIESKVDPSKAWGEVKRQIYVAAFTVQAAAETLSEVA

B1: deimmunized J415 heavy chain version 4 combined with deimmunized J415 light chain version 5 (antibody, V domains shown)
VH: EVKLEESGGGLVQPGGSMKISCVASGFTFSNYWMNWVRQSPEKGLEWVAEIRSQSNNFATHYAESVKGRVIISRDDSKSSVYLQMNSLRAEDTAVYYCTRRWNNFWGQGTTVTVSS
VL: NIVMTQFPKSMSASAGERMTLTCKASENVGTYVSWYQQKPTQSPKMLIYGASNRFTGVPDRFSGSGSGTDFILTISSVQAEDLVDYYCGQSYTFPYTFGGGTKLEMK
notes: also called DIVH4/DIVK5; J415DIVH4/J415DIVK5
As to B1, the binding result in assay [1] is recorded as “binds”.

B2: deimmunized J415 heavy chain version 2 combined with DIVK5 (antibody, V domains shown)
VH: B1 VH with S40T, E50L
VL: B1 VL
notes: also called J415DIVH2/J415DIVK5
B2: the “fold less binding than the chimeric antibody” value in assay [2] stood at 2 fold.

B3: deimmunized J415 heavy chain version 1 combined with DIVK5 (antibody, V domains shown)
VH: B1 VH with V23K, S40T, E50L
VL: B1 VL
notes: also called J415DIVH1/J415DIVK5
For the molecule B3, in assay [2], the “fold less binding than the chimeric antibody” value came out at 2 fold.

B4: J415 chimeric antibody (antibody, V domains shown)
VH: B1 VH with I20L, S87N, A94G, V95I, V112L
VL: B1 VL with A13I, A15V, M19V, T41E, S63T, G68A, A80T
notes: Expression vectors carry human IgG1 and kappa; also called the chimeric
With B4, the binding result in assay [1] was “binds”.

These data come from patent US20040120958A1 (CORNELL RESEARCH FOUNDATION, published 2004).
